What is called stoichiometry N is the number of molecules, sites or subunits per partner or assembly.

The text below walks through data of paper PMC7982547 (The Journal of Biological Chemistry, 2004).

Data set [1] concerns the molecule itself. Briefly: crystal structure.
Data set [2] concerns the molecule itself. Briefly: crystal structure. This is another data set of the same source.

B1: nMHV 2-Helix (new construct of the MHV fusion core: shortened HR1, 22-residue linker, HR2) (domain or fragment)
chain: ENQKMIASAFNNALGAIQDGFDATNSALGKIQSVVNANAEALNNLLNQLSLVPRGSGGSGGSGGLEVLFQGPDLSLDFEKLNVTLLDLTYEMNRIQDAIKKLNESYINLKE
Regarding B1, the binding result in “crystal structure [1]” is recorded as “binds”. ENQKMIASAFNNALGAIQDGFDATNSALGKIQSVVNANAEALNNLLNQLS (domain or fragment) [shortened HR1 region of the MHV A59 spike protein, residues 968-1017]: the binding result in the data set “crystal structure [1]” was “binds”.

B2: HR1 (heptad repeat 1) region of the MHV A59 spike protein, residues 968-1027 (domain or fragment)
chain: ENQKMIASAFNNALGAIQDGFDATNSALGKIQSVVNANAEALNNLLNQLSNRFGAISASL
On to B2, for which, in the data set “crystal structure [2]”, the “stoichiometry N” value was 3.
